This passage reports percent of total αS partitioned into the droplets results from publication PMC10473755.

The target of this test is prion-like C-terminal domain of TDP-43 (TDP-43PrLD), in droplets with poly-A RNA (UniProt Q13148). Briefly: co-sedimentation.
prion-like C-terminal domain of TDP-43 (TDP-43PrLD), in droplets with poly-A RNA, sequence (Q13148 267-414): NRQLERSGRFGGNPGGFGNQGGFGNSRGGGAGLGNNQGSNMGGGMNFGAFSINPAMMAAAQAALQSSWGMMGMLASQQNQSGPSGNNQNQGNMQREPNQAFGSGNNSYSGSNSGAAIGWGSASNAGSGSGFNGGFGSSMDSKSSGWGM

As for “α-synuclein, wild-type monomers (from UniProt P37840 1-140) (natural protein)”, the percent of total αS partitioned into the droplets was determined as 8%.
